# Measured values taken from the supplement of paper PMC10724198.
# ± gives the standard deviation of the averaged measurements.
# Tested on: Saccharomyces cerevisiae
# Assay: protein stability index of tFT-peptide fusion (C-terminal peptide) (PSI (0-1 scale)); higher = more stable (slower turnover)
# Settings: genetic background: wild type; temperature: 30 C
# 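Further: PSI is a weighted mean of sequencing reads over stability bins, variants kept only with over 10 reads, mCherry proximal and sfGFP distal, peptide attached via GGGS linker.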
row,Sequence,protein stability index
1,KGQKVAYSRHRA,0.718 ± 0.063
2,VGVRRAGGARGW,0.634 ± 0.088
3,CGGGGGLWLLEV,0.559 ± 0.015
4,GALVGFPAFFLL,0.654 ± 0.011
5,FGSPFPASRFTT,0.752 ± 0.082
6,TYIVVAPTLARL,0.67 ± 0.095
7,LRSPSDSLALPL,0.666 ± 0.028
8,SPPPIVPPPSPP,0.662 ± 0.12
9,SFNDVPPPEGIK,0.67 ± 0.038
10,HPPPSLAASPPP,0.544 ± 0.017
11,AGGAVGEAGSEG,0.6939 ± 0.0027
12,VGGGGAELCVVE,0.667 ± 0.022
13,LCGALWGAARGE,0.728 ± 0.019
14,PDRIQPRSVLLP,0.7293 ± 0.0047
15,PPLRFLSVSSSP,0.6741 ± 0.003
16,WGGGVGWSGACL,0.734 ± 0.02
17,VGGGGRSTGVGK,0.65 ± 0.044
18,ACEAERRTFRWV,0.66 ± 0.012
19,PFPSPAAPPPSL,0.674 ± 0.01
20,RITMNMHSLIIP,0.711 ± 0.032
21,VSSWNALCVEGM,0.649 ± 0.0073
22,RYLLPYQRRLFL,0.745 ± 0.26
23,GGCAAGVGRLAV,0.624 ± 0.075
24,SFPAPPSPPPLP,0.702 ± 0.081
25,EERHAEPRNCMF,0.773 ± 0.015
26,CKRKGREEEEKE,0.7361 ± 0.0064

row,Sequence,protein stability index
1,PAPPHPRHPPPP,0.649 ± 0.018
2,FTSPNGVRVCFH,0.843 ± 0.02
3,RRAGRGGIGKGG,0.591 ± 0.018
4,YDELEKADKQEE,0.6723 ± 0.0061
5,PRGAVGSRPAGR,0.677 ± 0.034
6,SVGKRRGVGVWN,0.7007 ± 0.0031
7,YGSYVVNSLYLS,0.616 ± 0.0097
8,TKTIKPNKKATV,0.655 ± 0.03
9,GALVLWTGCTYS,0.726 ± 0.0033
10,FVVGTFGHRRGR,0.694 ± 0.019
11,STRPPVRYHGAS,0.728 ± 0.066
12,ETSRTYGNFPIT,0.774 ± 0.11
13,LVGTFTEKFRVC,0.578 ± 0.023
14,GKTRKGKKRKRK,0.666 ± 0.14
15,PSPPFFLTAASL,0.668 ± 0.01
16,PPPPPLPPLPTP,0.693 ± 0.022
17,GCLPGGKRESRG,0.647 ± 0.11
18,SPPPPPPPPPPL,0.757 ± 0.041
19,SFGVDPDNCVGF,0.607 ± 0.061
20,GFLWLLGGVLGV,0.658 ± 0.082
21,VGSGGGKGLCRQ,0.674 ± 0.048
22,GSSAVGWGGVWW,0.796 ± 0.11
23,GVRAVRSCRMQR,0.702 ± 0.072
24,GVLGGGVFGGSV,0.631 ± 0.077
25,TSGEIESTSKKK,0.689 ± 0.055
26,IQANLPLLTNQE,0.6631 ± 0.0017

row,Sequence,protein stability index
1,LGVLGGWRRFGV,0.72 ± 0.031
2,AVQSEFGVGFSM,0.736 ± 0.04
3,RSPHLPTARSSQ,0.723 ± 0.018
4,NMLWSLGRGGSC,0.6648 ± 0.0029
5,CRISHPPLGGGS,0.652 ± 0.02
6,PFSASSILESVI,0.719 ± 0.098
7,GKRGRDYIKVRE,0.6448 ± 0.006
8,LSARIGEMVDTW,0.56 ± 0.027
9,SWFLLEVLSDFK,0.649 ± 0.014
10,VDFVGFGGVEGG,0.75 ± 0.059
11,LPASSPTEYPPP,0.713 ± 0.049
12,CREWNKAGWGNV,0.702 ± 0.014
13,CLTSSIFSRSFA,0.632 ± 0.04
14,YCAMVSVGVVGG,0.534 ± 0.0076
15,WGGVGRLAGLLG,0.703 ± 0.021
16,VGGHGGVGGGMG,0.651 ± 0.026
17,KNNITTTNKRMK,0.679 ± 0.0071
18,FSFCQLSLASFP,0.571 ± 0.01
19,VCGLGGCGGLGV,0.731 ± 0.039
20,KKKKQKIRKVKK,0.725 ± 0.084
21,GVGVWVVLGRAG,0.644 ± 0.031
22,ASPPPEVCLSHR,0.682 ± 0.0092
23,GAGGARRLAVGQ,0.655 ± 0.014
24,GAPTRSYGERKR,0.647 ± 0.0097
25,GKQNQEKNKKTS,0.696 ± 0.045
26,LAHRASICLARL,0.695 ± 0.063

row,Sequence,protein stability index
1,QIQNRVDYRIKL,0.6353 ± 0.0031
2,ASHPESHIAWPA,0.691 ± 0.03
3,APPPPPPPPRPL,0.642 ± 0.041
4,GKKGKEKGEEKR,0.716 ± 0.028
5,PPHLIPTLLSPP,0.721 ± 0.02
6,PLLPPSDTCSLL,0.718 ± 0.089
7,HRRGRVAQFAIS,0.644 ± 0.029
8,PCPGSPPCHFYF,0.691 ± 0.018
9,LLFPSPPLPPPL,0.784 ± 0.15
10,LTSSYSLCFLAP,0.696 ± 0.011
11,SPDCSLSPSVSG,0.684 ± 0.029
12,PFTTSSQPDSPI,0.735 ± 0.065
13,SEALRGVQFLSC,0.684 ± 0.054
14,TNYKIKDDRLHR,0.699 ± 0.014
15,SPPLPPLPSVAF,0.637 ± 0.16
16,LLRRSNLLHLVL,0.574 ± 0.049
17,RRVYGRELHPSQ,0.731 ± 0.029
18,ILPFYAEGQLKF,0.649 ± 0.05
19,RPAMSPPPLCPP,0.625 ± 0.027
20,LRFGGWFLIGLR,0.583 ± 0.021
21,APPPPQSRASSP,0.7379 ± 0.0052
22,VSGDRFKRHESV,0.695 ± 0.027
23,TNKNNKKKKEKI,0.743 ± 0.049
24,LRPGVRHFRECV,0.627 ± 0.096
25,RVVGGWGEAWRE,0.744 ± 0.0091
26,FSPLLQSPLLAP,0.692 ± 0.0089

row,Sequence,protein stability index
1,GHRLSMCLGFGK,0.63 ± 0.01
2,IGTKKVINDKLL,0.675 ± 0.028
3,PPPKAPHSSPNL,0.675 ± 0.072
4,VRCGGPGRAGKG,0.63 ± 0.052
5,TTGGRGSRVGGR,0.6975 ± 0.0024
6,TKRGQMLYQDKE,0.741 ± 0.1
7,PPLPPPSSPLFP,0.714 ± 0.087
8,SGVRGRGSFWSV,0.664 ± 0.04
9,VRGLGRLSRAEV,0.77 ± 0.014
10,KLKDRRKNTEEI,0.6961 ± 0.0033
11,QRPFRRRRVLCP,0.561 ± 0.054
12,GVLQYPPCTYPH,0.675 ± 0.0078
13,GCLRLCYQHWSP,0.6764 ± 0.005
14,HPRRLRPAHTPP,0.725 ± 0.0075
15,PFESSRRLAPSP,0.722 ± 0.035
16,WGHFVGVWGRAG,0.664 ± 0.075
17,GESGGGAVGGGW,0.64 ± 0.039
18,PGSILFRGVGAS,0.691 ± 0.035
19,IIKDITNRGYAW,0.724 ± 0.073
20,RKKKTRGKEKRR,0.683 ± 0.097
21,SVSLSLLFFLPF,0.675 ± 0.025
22,YNSRKQKKREKK,0.706 ± 0.027
23,VGVGNRRWGGGV,0.679 ± 0.014
24,PARPSSLQLFPY,0.747 ± 0.0078
25,YMGGGGASGAPA,0.667 ± 0.047
26,EKGWFDLGGCQV,0.723 ± 0.035

row,Sequence,protein stability index
1,TPCTFPPLIRSP,0.672 ± 0.039
2,RGARRGAPVCGW,0.71 ± 0.0075
3,ACGLVSTSWYGA,0.713 ± 0.086
4,GAVHLNSLPVTK,0.6983 ± 0.0044
5,FIGWFSLMSCSV,0.604 ± 0.026
6,LPGTVELHSSRL,0.755 ± 0.022
7,LLPRSPLLPPLH,0.719 ± 0.0048
8,FPATLPPSYSLI,0.643 ± 0.017
9,GSGRPARCVEGG,0.644 ± 0.03
10,VDLVSRVVFQDR,0.7231 ± 0.0015
11,CSLLFSLNLMPS,0.666 ± 0.063
12,KKKQKKERKKTK,0.649 ± 0.042
13,IVLGGPAWPVAA,0.613 ± 0.034
14,EKKKKENKVKRF,0.664 ± 0.013
15,RWGGGGSVSFWW,0.712 ± 0.053
16,AFHFFLIPHSFF,0.639 ± 0.025
17,SPSTRWPTVQTR,0.662 ± 0.0098
18,NTVLPTPTMSPP,0.702 ± 0.04
19,QAGGEYGLKVRW,0.805 ± 0.033
20,VVDGWVAAWGVW,0.694 ± 0.003
21,LLRLLYVGVVGR,0.573 ± 0.027
22,GWAIKGPFTLRS,0.663 ± 0.044
23,RGRVLDTRDWGP,0.666 ± 0.059
24,HHPTQRPRHRLG,0.683 ± 0.082
25,KTKVIFMYKKGQ,0.675 ± 0.021
26,RGSGEVVLFGVG,0.671 ± 0.057

row,Sequence,protein stability index
1,WQGLGGARGCML,0.691 ± 0.066
2,RLRRLYSLRTYL,0.543 ± 0.033
3,QQRVKTYHELHL,0.712 ± 0.013
4,GSGLEAGVRRWG,0.67 ± 0.016
5,FITLHGLLSRPC,0.626 ± 0.077
6,PHLHHPPPPISA,0.603 ± 0.027
7,PSLRPPPLPPLS,0.7214 ± 0.0025
8,LPQLPNSRRLPL,0.648 ± 0.049
9,NISIFGSRLRVV,0.533 ± 0.034
10,GCLLVVAGGGRG,0.698 ± 0.069
11,QKINKRPTIRQI,0.603 ± 0.063
12,GRRRCGGGVEVC,0.668 ± 0.014
13,LPLSSLLRPRHS,0.684 ± 0.056
14,RGSCPFQSWRCS,0.59 ± 0.038
15,DIAFFEGSGGTM,0.675 ± 0.096
16,EASSRITFGLII,0.698 ± 0.041
17,RKNYRISYKLLD,0.715 ± 0.02
18,HGLESMNRYRWI,0.555 ± 0.016
19,VKENLCLLWVYR,0.562 ± 0.013
20,CGILTWASSSLG,0.688 ± 0.034
21,VSGFVILDSTCP,0.671 ± 0.025
22,FKVARGVHCGEG,0.6662 ± 0.0037
23,SVYTTGHTHTGR,0.626 ± 0.17
24,DTSENSVKFTKV,0.733 ± 0.075
25,GGARGDEGGGSA,0.761 ± 0.055
26,LSRFLPESVYMS,0.679 ± 0.011

row,Sequence,protein stability index
1,PARRPPLPRLFL,0.665 ± 0.032
2,ISVPNPTRPDHP,0.665 ± 0.063
3,THPTCPLHLLPT,0.699 ± 0.039
4,RRPFPSSVVFPH,0.702 ± 0.023
5,KSKGVRITKVSN,0.783 ± 0.02
6,KNKTLNKIIRLP,0.717 ± 0.042
7,FFPPLLSFPPTD,0.7189 ± 0.0044
8,SILQINRDNVMR,0.742 ± 0.02
9,PSTILLRYRPSV,0.825 ± 0.16
10,RELLYLPPPSDP,0.821 ± 0.051
11,RCGLVGILCSSI,0.5632 ± 0.004
12,YTHIRGVLFGVR,0.704 ± 0.034
13,AAFERRDPDLKV,0.766 ± 0.062
14,GRTCCGGGVGFG,0.595 ± 0.033
15,GLGLASSGWGRG,0.733 ± 0.018
16,KKRHERNYLVQS,0.662 ± 0.066
17,APVLSVSFFSFL,0.718 ± 0.013
18,NNKSNKKKERKE,0.698 ± 0.053
19,LDVGSFLALRMR,0.627 ± 0.036
20,LGRSGCRGGYVG,0.622 ± 0.014
